According to a protein production outcome set (Wang et al. 2014):

Test: label from the status in PepcDB records

MGEIRNYIKLILIGVAILVTVTMIISATGCDILPPPASAIKPPQYINASSGEVEDPKAIARRFLTPGTYFSYPTHPRNADAVWEVDIDGDGRAELLTLYRGRDLKNNGVEVFGVFILKQDENHEWQIFWEQQYTANIVALDWADVRDITGDNYPELLIGWNIGYRIGSNLDIYSLKEEDKPRLISSIKYSEIVGIEDRRGINNEIKPVLMMYLFDEEMYESENEGRKDEYFHILQWDYKEWMGGGLVEADDFYASYYVNVIEDLKESLERYSNNYYQWYILALAQLRSGKPMDALESVGKVLEITQRYINRHGERTVKEVFKYQKKARILKAAAYIKMGKYHESIIESNYVLGNYDIDDKELAQIYLNLGYAYAGLKQYEMAGTYFNKSCETAETVYKEGTALYLLNSYKAKKQLEYIKPFLTSSH
protein production: failed

MGEKPGTRVFKKSSPNCKLTVYLGKRDFVDHLDKVDPVDGVVLVDPDYLKDRKVFVTLTCAFRYGREDLDVLGLSFRKDLFIATYQAFPPVPNPPRPPTRLQDRLLRKLGQHAHPFFFTIPQNLPCSVTLQPGPEDTGKACGVDFEIRAFCAKSLEEKSHKRNSVRLVIRKVQFAPEKPGP
protein production: failed

MGEKVSIILTSYNKPDYLQKAIESVIQQTHDLWELFIMDDHSNAETTAVIHKYLHDRRIQYHNSFVHPADRLKTARYATLINSALPFADGDYISYLTDDTVYHPERLSRMVQEFSHKPEAQAVYSKQKVVHVNERGEEISHFYRNANAVLDQAAFQVDHCSVMHRRSLLNLIHHKFGGYWDDDMKHWNHGDAIFWARLNNFTPFLPINEVLDTTYKTPDSFQNAYRFLPADLIDGSFVKGSDQNVYFFDQGVRHPVGEKWGFLYLNRTVAVPDPYLFQYRIGKILNIPNYILVKEADHPAIFYIEAGKKRRIVDQYAFQFYQFQRKDIVTIGKEEMETLPEGPPITWKRSELIKNPPGRRLFFIEREPFLFLNGVFHPISEQVTRKFFLHQKPISASFRNIQQFPIGKPFYPVYDEIIKKLNIATELEHHHHHH
protein production: not failed

MGEMENIIYSIYHPTILVGFAIGILSLLAIGFQKNDLHALILTDVVECAMLIIIAGVGTDLAEALILPGLVVSLAELLAVSEVLITRKYLKSKRPKPKSYKLFEEFKLPLYTGELKYDIHMEILKTSPKFLAIILIVYGAILSGFTGGAVIATGLLFYALSQRVIGVEISEELKTMWEGISGLSGIAWALWIFGFIGFFVFPDKWLLCLLMAGLGLVIKVGSKLGLIGYIGEVR
protein production: failed

MGEPFGGPLMGRLVSLLPSATDLIFELGLGEQLLGVSHCCDHPGAASLPVLTRSIIGSDLPQAEIDRAVSEAVRAGRALYTVDGPLLDRLRPDLVVTQGVCEVCAVTPGTVAEAVRFLPGCLPAEQVLSLEGKTFAGILADLRALARAAGVRERGEALAAESERRWNAIRPVGVQVPEPPRVLTLEWVDPPFYGGHWVPEQVAQAGGKDVLGHAGRDSGRTSWEDVVQLDPDVIVVMCCGYGLSDNAEFARQVLSHPELRAVRAGQVWGVDANAHFSRPSLGVVRGAEVLAALLRGEESAGESVRVRAELEHHHHHH
protein production: not failed

MGFDFGTVLVFAVVAVGFALGGIAASRALGPKWPNPEKASIYECGERPVGVAWFNFNPRFYLVALVFLVFEVDIALTFPVVAVFKGWVAQGPGMAWVAFFELLVFTGILVVGLAWAWAHGDLEWIKTLGAPSEEAPARAEPRRAA
protein production: failed

MGFFDSGIGGMTVLYEAIKVLPYEDYIFYADTLNVPYGEKSKGKVKEYIFNAAEFLASQNIKALVIACNTATSIAIEDLRRNFDFPIIGIEPAVKPAINKCTEERKRVLVVATNLTLKEEKFHNLVKEIDHHDLVDCLALPGLVEFAENFDFSEDKIIKYLKNELSSFDLKQYGTIVLGCTHFPFFKNSFEKLFGIKVDMISGSVGTAKQLKKVLADRNQLGKGSGSITFFNSGHKIVDQEVISKYKRLFEILDETQRSHVGH
protein production: failed

MGFHLRGNNDFAFKRLYINLPQNSQMRAQLRRLIDNGSDTVVVSDKQDADAFLDVLSENRVKTISSLTPQGVVREYRITYRFSFQLRDAHDNLLIPPSEITLFRDLSYNETQVLAKDYEEAALYRDMQGDIVNQLVRRLASVRLPSLEHHHHHH
protein production: not failed

MGFLVPSEITVSEFLLDFLNKYSENISLATYNNYVSICKNYINPSIGKYKIQDLHPVHIQNYIDKLSYKLNPQSIKIHINILKLAIKRAYRLKLIKENVMDSIKAPLEHHHHHH
protein production: failed

MGFNVKTPLLATDVIIRLWDGENFKGIVLIERKYPPVGLALPGGFVEVGERVEEAAAREMREETGLEVRLHKLMGVYSDPERDPRAHVVSVVWIGDAQGEPKAGSDAKKVKVYRLEEIPLDKLVFDHKKIILDFLKGNY
protein production: not failed

MGFSFLLATVQKERMKRRSRTRSRSRRRAKQDPKTWVARYIPQDLLIEILTRLPPKSVMRFKCVSKFWSSLLSSRYFCNRFLIVPSQPQPSLYMCLLDRYNYSKSLILSSAPSTSPYSFVFDQDLTIRKMGGFFLRILRGFIFFTRNLKARIYNPTTRQLVILPTIKESDIIAGPPYNILYFICHDPVNDRYKLLCTVSYASDNDLQNLKSELWIFVLEAGGSWKRVANEFPHHVPSHLDLNMNGVLYFLAWTDPHTCMLVSFDVRSEEFNTMQVPRNAGDTLPRQEKGVVNRVW
protein production: failed

MGGASWADTAMGGKGRHPDKALTTVQVRALKVPGRYADGNGLYLVVEPSGSKRWLLRTIVQGRRRDIGLGGAGLVTLAEAREKALAYRKLARDGGDPLAERRKARATVPTFAEAAEQVHEEHKASWKNPKHAAQWITTLRTYANPHLGARRVDQIETPDVLRALSPIWLTKGETARRVRQRIGTVLDWAKAAGHRTGDNPVESVAKGLPKQGERDEHHAALPYAEVPAFVTRLQSSDHGEAARLAFEFLILTAARTSEVLRAEWREIDEAEALWTVPAARMKAGREHRVPLSKRSLEIVRRAKLLAGDSAFIFPGRSTGKPMSNMVFLMALRRMKLTVTAHGFRSSFRDWAAEATSLPREVAEMALAHTIENRVEAAYRRGDLLAKRREMMEQWSTFVASKPKGDKPHKSSA
protein production: failed

MGGDARRALFVPAPSPTLHRMLPDALRDTLEERLDATIESVASVRGGCIANACRLETDAAPFFLKHGPDEVARTFPGEAAGLEALGAADSPLVVPSVHDTAPATDDRPGFLVMEWVNPGREGRRFWDRFGEGLAALHRHTADAYGFGQDNFIGRLPQSNAWTDDWPTFFREQRLAPQVDMARERGRWRDGWGTALTTLYRRLPDILPRSPEPSVLHGDLWKGNYLVTAVGDPALVDPATYYGHREADLAMTELFGGYDDRFYDAYRSAWGLAPEYGTRRDVYNLYHLINHLNLFGGGYAAQVEDTLRPFK
protein production: failed

MGGIARLYGDSALAHFSQAHVCVVGVGGVGSWAVEALARTGIGRLTLIDLDNVAESNVNRQLHALTGDFGKAKVTALRERITQINPQCEVFEIEDFVTEDNLPEYFGKGFDFVIDAIDQVRVKAAMAAYFVERKQPFVLSGGAGGQKNPALIQTADLSRVTHDPLLANLRYTLRKRYGFSRDTKANMRVPCVYSTENIVPPQSREACSADAAPQGLSCAGYGASMLVTASFGLYCAQAAVEHIADKKLEHHHHHH
protein production: failed

MGGKRHQNSGKGGKGRAKDAASAPQPNAGKVTLEGRSFLYVGGRDCQVAHLRQIASSYGAELIHHDGGLREAVSRIDRVLPSVDCVFCPIDCISHDACLRVKTGCKKWGKAFVPLRNGSKSSLEHHHHHH
protein production: not failed

MGGKTKKHAMRLFDRIAEKYDLLNRILSFGMDTKWRKRVVELILEVNPEKVLDLATGTGDVARLLKRKAPHLEITGLDSSSKMLEIAEKRLKDGEFIVGDAHNLPFYDRSFDAITVAFGFRNFSDRRRVLRECRRVLKRKGRLVILELLPPNTKRFTGKIYSFYLKTWVPFVGGLFSGDFHAYRYLSTSVLNFLTPDQIVEMMKEEGFEVSFEPLFFSVAGIFIGDLIWLEHHHHHH
protein production: failed

MGGMRWLLLAKQPALGGAAALEGVMMKAPWAWALAVRLPDGRIHVERHEERALTERYPWTRLPLLRGVVALFDALSVSYRALARSAELAGGEEVPRGALWGTVA
protein production: failed

MGGSFGKKGASSATAAQVPLATETTPGLMSPSEKLKLSTLTTSIATSDFYASYDFMMHSIGLTSANNISLLSTGNISLQNILSEGNHFGVQPIVSSTTANASFLAGMLMAIFPKESELEVTVYFKTPSAFNPAQLTVIGSTSIGLGISDRSGLIIENGNAFGGIVKASAATETGSTYALSTSTWYICKFKMLTDDRFKVTLYSDSGTQLYSYTSTAAMFRADNATAHIGFKTQCKTATAGISLISIDLIEFKAKVSATRAKV
protein production: not failed

MGHERDWSLVQVALTDITARKKAEAYLEYLGKHDVLTKLHNRAFYSDELNRLERSALRPVSAIVIDLNGLKEANDKLGHDAGDALLRRVGEVLNGVVTAPNHAARIGGDEFAILLPGADKQVAAAMVDTVYELLKINNQFYSSAPLSLSLGVATTEAGETMESLVRRADMNMYEQKNAYYAALRNRSADNNDTTKGLEHHHHHH
protein production: not failed

MGHHHHHHSHGLCYDLCRFGAVVAEDGYYVDEKKCEGCAFCFNVCPERAIEMENVKTGDLYVSKTEWGYFVHARLKPGEENTGRLVTEVKNRAKEIAEESNAEFLIVDSAPGVGCPVMASLTGVDAAIIVTEPTVSGLSDMLRILELCEHFRIRPFVVVNKFDLNVNIASEIESYCSENGVEFAGRVPFDKAIPEQIANLNFPFSGKAADKMVEIWKKLRE
protein production: failed

MGHHHHHHSHMGNIPEAIASYRTALKLKPDFPDAYCNLAHCLQIVCDWTDYDERMKKLVSIVADQLEKNRLPSVHPHHSMLYPLSHGFRKAIAERHGNLCLDKINVLHKPPYEHPKDLKLSDGRLRVGYVSSDFGNHPTSHLMQSIPGMHNPDK
protein production: failed

MGHHHHHHSHMIEHDPVKPRQLPKTIGCSKNFPGKTALATREQVQWWLLQLAQELEERLTKDRNDNDRVATQLVVSIRVQGDKRLSSLRRCCALTRYDAHKMSHDAFTVIKNCNTSGIQTEWSPPLTMLFLCATKFSASAP
protein production: not failed

MGHHHHHHSHMIRINEIKLPLDHEEGALLDAITKKLGIPAEKVISFNVFRRGYDARKKTNIHLIYTLDIIVEGDETALLAKFANDPHVRQTPDMEYKFVAKAPENLTERPIVIGFGPCGLFAGLVLAQMGFNPIIVERGKEVRERTKDTFGFWRKRTLNPESNVQFGEGGAGTFSDGKLYSQVKDPNFYGRKVITEFVEAGAPEEILYVSKPHIGTFKLVTMIEKMRATIIELGGEIRFSTRVDGLHMEDGQITGVTLSNGEEIKSRHVVLAVGHSARDTFEMLHERGVYMEAKPFSVGFRIEHKQSMIDEARFGPNAGHPILGAADYKLVHHCKNGRTVYSFCMCPGGTVVAATSEEGRVVTNGMSQYSRAERNANSAIVVGISPEVDYPGDPLAGIRFQRELESNAYKLGGENYDAPAQKIGDFLKGRDPSQLGDVEPSFTPGIKLTDLSKALPPFAVEAIREAIPAFDRKIKGFASEDGLLTGVETRTSSPVCIKRGKDFQSVNLKGFYPAGEGAGYAGGILSAGIDGIKVAEAVARDIVAAMENA
protein production: not failed

MGHHHHHHSHMISWLTGEELHVEVLENVPLTTHNFVRKTFFTLAFCDFCRKLLFQGFRCQTCGYKFHQRCSTEVPLMCVNYDQLDLLFVSKFFEHHPIPQEEASLAETA
protein production: not failed

MGHHHHHHSHMLPPEQWSHTTVRNALKDLLKDMNQSSLAKECPLSQSMISSIVNSTYYANVSAAKCQEFGRWYKHFKKTKDMM
protein production: not failed

MGHHHHHHSHMNSCILQATVVEAPQLRYTQDNQTPVAEMVVQFPGLSSKDAPARLKVVGWGAVAQELQDRCRLNDEVVLEGRLRINSLLKPDGNREKQTELTVTRVHH
protein production: not failed
